Experimental data taken from the DeepSol protein solubility set.

Assay: soluble on expression in E. coli; label from the status in PepcDB or PDB records
With “MGSSHHHHHHSSGRENLYFQGHMLLHIPAIFTAEEVSRIRAALEQAEWADGKATAGYQSAKAKHNLQLPQDHPLAREIGEAMLQRLWNHPLFMSAALPLKVFPPLFNCYTGGGSFDFHIDNAVRDVHGGRERVRTDLSSTLFFSDPEDYDGGELVIQDTYGLQQVKLPAGDLVLYPGTSLHKVNPVTRGARYASFFWTQSLVREDSQRTLLFEMDQSIQRLTRDVPDHPSLIRLTGTYHNLLRRWSEL” the “soluble on expression in E. coli” value was “soluble”. For “MGSSHHHHHHSSGRENLYFQGHMVIIDNKHYLFIQKLGEGGFSYVDLVEGLHDGHFYALKRILCHEQQDREEAQREADMHRLFNHPNILRLVAYCLRERGAKHEAWLLLPFFKRGTLWNEIERLKDKGNFLTEDQILWLLLGICRGLEAIHAKGYAHRDLKPTNILLGDEGQPVLMDLGSMNQACIHVEGSRQALTLQDWAAQRCTISYRAPELFSVQSHCVIDERTDVWSLGCVLYAMMFGEGPYDMVFQKGDSVALAVQNQLSIPQSPRHSSALWQLLNSMMTVDPHQRPHIPLLLSQLEALQPPAPGQHTTQIL”, the “soluble on expression in E. coli” value was “soluble”. In the case of “MGSSHHHHHHSSGRENLYFQGVLGAGCIGGSIALKLKEKHHVTAFDRDEETMKALEENGIETVSKESDLYDTDLLVLALPMSVEERFLKETDFSGKILDVASVKTPFMEIARERGLNFTGGHPMAGNERKGKSGWDREMFDGKIFFLCSLDGKEDGMIENIVKDLGARPLWIDYRIHDEIVAAVSHVQYLISLSARYVGKPFEEYAGPGYLSNTRLSKQNMEMALDMIRYNKENILKYLENARNFLNVLYHLTEKEDFENLKKVIREVI”, the “soluble on expression in E. coli” value is reported as “soluble”. With “MGSSPAPFADIGKKAKDLLNKDYIFDHKFTLTMLSATGTEFVATGLKKDDFFFGDISTLYKGQNTIVDLKIDSHSSVSTKVTLKNLLPSAKAVISFKIPDHKSGKLDVQYVHPHATLNSSIGLNPTPLLDLSATIGSQNVCLGGEVSFDTASSSLTKYNAGIGFNNQGVSAALILEDKGESLRATYVHTVNPTTSFGAELIRRFSNYNNSFTVGSSHSVDQFTVVKTRFSNSGKAGMVVQREWRPKSHITFSAEYDSKAVTSSPKLGLALALKP” the “soluble on expression in E. coli” value was “soluble”. With “MGTALAAPPLGGCAEGFEVHGGDEEGLPLPTQIDLYLVGLAPLPHHGSRQPVEPPVGHAPVWEGGVYDYSHLIAHPVLPKVGAEPGYAALLPHRLPQQPPSPVPIASRCLDQPTLPPVFCSAQLNLALAGCGWSFMLHPHHVELYTHSLPAEDLSEAWPGSPAITADQLLDVETPFRLQYALHQRRPLQGAAV” the “soluble on expression in E. coli” value was “soluble”. For “MGTGGITSNAHVVSPTWHHKHVPPMDDDSVLQRDIGELLSRWGGLQMAVKNQWGGHDSLKKSQELAHNLFHLISQSNGSIFFLLL”, the “soluble on expression in E. coli” value was “not soluble”. With “MGTLIMENETNLSEVELRKNLIANINDCKTLLQLGEIYYSSGRYYLAANYLSYVMKMTNDAALYEKSNQLLFLAERAIQINNNDKMFSNFEFLDTLIMELLNCLKNHYYYNIDIELFELMHVRPSVDSIVVNTQNEKEEIVKHLQGLEELYFNLNDSFSKELLIKLLTFRLLGNHKVKMPLNTIDYWKQRKSIPNLIHSSETLQTNYHNWTLQLFDLTPLKYNLRLFYVPMGISATFLDKQYEYNKISPVIKVKEGDVVIDAGGCFGDTALYFAHEVGETGHVYTIEFIPSNLEIMSKNINLNEKLQNNITIVKHPLWNVSNTSLYYKDQGAASFVTFSEESGVTDKVSTITIDNLVVEHKLHKLDFIKMDVEGAEMNALKGAIHSITTFRPTLAIAIYHQISDFVNVMRFINDLNLGYQFYLGHYTVNAQETILFAVAREKMEVSDENEE” the “soluble on expression in E. coli” value was “soluble”. In the case of “MGVDKKQKQRKTNPFELKFNKSKHDILGRKKGAQVGAPTASRKRAHEQREQTLGVEYDRKNKISKIVDKRLGEKDGKSEEEKGAMRFTEERVKNYKRASKFNLTDDGDEEEEVLTHKGKALSDIEKYDKSMISDSDDDEEPGNLGSNMVKVAHFGGGEKTAEEHVREKISREDMISNLIAKTKLARHEKQQQKDELELMTESLDSKYQALMGKMKASFRPTGRQPLEKDDYDKLTITLKTEADARATPADRKLSEEEEALKEKERLETLEAAPDADVDIDAGSKADARKVQAKNSRFEVKFDDEGGLIDEDTVEKSRILKKNLDGSDESDDDEDLEDEEEDLDDLLEDEDELEEDSDDEEAQEAQKVVKKAKKSAPEPAETLPFVFEMPKNYKKFCALLEKHSESMDLVLERLVKCHHPSLKEGNKKRLNKLFLLCLRWFDDMSKEELTAESVKEMNLAQETMHALMKFDIQYGVRCVRALIRQHWKGRQDKQKSSPVSFGLISAIRLVSGLFPVADSWHPVVVPALFLATEALCSAKCANLNALAKQIQLANAIVEYVSESKRYVPELVAFARSALLLAVTEKSEKFATNGFPISKPHTEMLCFEEKYTGPALQPISLTTIFNNSPSDPSLKLHVLRALLSLIQHLRVIYSNQNETYSIVFKPFLRILESIQAKNLPAEVQEELETLCASMKAEIGAKCRLVHLSLVKTEKSMLKMLEPRFEWDFDPERPHHGPKDEKKKLTKNLRNERRGAIKELRKDTAFLARKQLSSVKTKDRARIAATKRVMGGLMQQQGEWNKEKRTADVEKKKDKK”, the “soluble on expression in E. coli” value is reported as “soluble”. In the case of “MGVELSLDPPVCPIQANGGVSTHKIINHCDKMLAYKIKSSNNSNYSVNTIFGLIQIGYTADLIITRKPGKPQADKLVIQFAAVEQTCRDGCICQGCICQWTANWRVLWRDDHQAVSC”, the “soluble on expression in E. coli” value is reported as “not soluble”. With “MGVLLREALRSMCVNNQWSYAVFWKIGCQNSSLLIWEECYNETESSSNPRRLCGLGVDTQGNEKVQLLTNRMMLNNRIILVGEGLVGRAAFTGHHQWILANSFNRDVHPPEVINEMLLQFSAGIQTVAVFPVVPHGVVQLGSSLPIMENLGFVNDVKGLILQLGCVPGALLSENYRTYEPAADFIGVPVSRIIPSQGHKILQSSAFVAETSKQHFNSTGSSDHQMVEESPCNLVDEHEGGWQSTTGFLTAGEVAVPSNPDAWLNQNFSCMSNVDAAEQQQIPCEDISSKRSLGSDDLFDMLGLDDKNKGCDNSWGVSQMRTEVLTRELSDFRIIQEMDPEFGSSGYELSGTDHLLDAVVSGACSSTKQISDETSESCKTTLTKVSNSSVTTPSHSSPQGSQLFEKKHGQPLGPSSVYGSQISSWVEQAHSLKREGSPRMVNKNETAKPANNRKRLKPGENPRPRPKDRQMIQDRVKELREIIPNGAKCSIDALLERTIKHMLFLQNVSKHSDKLKQTGESKIMKEDGGGATWAFEVGSKSMVCPIVVEDINPPRIFQVEMLCEQRGFFLEIADWIRSLGLTILKGVIETRVDKIWARFTVEASRDVTRMEIFMQLVNILEQTMKCGGNSKTILDGIKATMPLPVTGGCSM” the “soluble on expression in E. coli” value was “not soluble”. In the case of “MGVNGAAGRSPGPKAVKPASVAIAVDYAMLTHEQAAVCAMRHERIDINPEVMGGKPVVRGTRIPVEMILRKLGAGLSTAEIIADHPRLTADDILAVQTFAADYLADQDVIFG”, the “soluble on expression in E. coli” value is reported as “not soluble”. In the case of “MGVPAFFRWLTKKYPATVVNANEDRQRDQDGNRVPVDCTQPNPNFQEFDNLYLDMNGIIHPCTHPEDRPAPKNEDEMFALIFEYIDRIYSIVRPRRLLYMAIDGVAPRAKMNQQRSRRFRASKEMAEKEASIEEQRNRLMAEGIAVPPKKKEEAHFDSNCITPGTPFMARLADALRYYIHDRVTNDASWANIEIILSDANVPGEGEHKIMDYVRKQRGNPAHDPNTVHCLCGADADLIMLGIATHEANFNIIREEFVPNQPRACDLCGQYGHELKECRGAENETDLGDDYCKPEQREKNFIFLRIPVLREYLEKELSMPNLPFKFDVERALDDWVFLCFFVGNDFLPHLPSLEIREGAIDRLIKLYKEMVYQMKGYLTKDGIPELDRVEMIMKGLGRVEDEIFKRRQQDEERFQARMCREESPADIASRKRKAEQPLIKPEEEEDEGPKDDIRLYESGWKDRYYRAKFDVGSDDIEFRHRVAWAYVEGLCWVLRYYYQGCASWDWYFPYHYAPFASDFETVGEFQPDFTRPTKPFNPLEQLMSVFPAASKQHLPVEWQKLMIQDDSPIIDLYPADFRIDLNGKKYAWQGVALLPFVDETRLLATLQSVYPTLTAEEKQRNTRGPNRIFIGRNHKSFEFFQQVAESKSDDLVPLDPTLLNGVSGKIAYDSTATAPGLPFVSPVNHDECQDLPTNCGICVLYEDPEYPQDYIFPALRLDGAKEPEKTLKPDDWNDRRDGRYQPQVGFNRNAPRGSLDQSGHRQVHHYVRGGGGGGGGYRGNSYDDRRGGGGGGGGYNDRQDFGRNYGGRDGGGPQRYHDQQQQRQGGYQGGGYGGGYGGGGGGGGGGGGGSYHQPYNQDQRRGGRGGGGGPPGYQRPPYRGGGGGGYHGNSSWR”, the “soluble on expression in E. coli” value is reported as “not soluble”.
